Test results taken from patent US20230257473A1 (TENEOBIO, published 2023).

T1: human BCMA protein (human, UniProt Q02223 1-54, limits assumed)
T1 sequence (looked up): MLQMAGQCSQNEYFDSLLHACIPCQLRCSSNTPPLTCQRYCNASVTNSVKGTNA


Tests used:
[1] = molecular target: recombinant BCMA (R&D Systems, catalog no. 193-BC) (human) (UniProt Q02223); assay: competitive ELISA, plate-bound BCMA; Ab 20.000 ng/mL; competitor APRIL 7.81 ng/mL
[2] = molecular target: recombinant BCMA (R&D Systems, catalog no. 193-BC) (human) (UniProt Q02223); assay: competitive ELISA, plate-bound BCMA; Ab 2.000 ng/mL; competitor APRIL 15.63 ng/mL
[3] = molecular target: recombinant BCMA (R&D Systems, catalog no. 193-BC) (human) (UniProt Q02223); assay: competitive ELISA, plate-bound BCMA; Ab 0.020 ng/mL; competitor APRIL 125.00 ng/mL
[4] = molecular target: recombinant BCMA (R&D Systems, catalog no. 193-BC) (human) (UniProt Q02223); assay: competitive ELISA, plate-bound BCMA; Ab 0.020 ng/mL; competitor APRIL 62.50 ng/mL
[5] = molecular target: recombinant BCMA (R&D Systems, catalog no. 193-BC) (human) (UniProt Q02223); assay: competitive ELISA, plate-bound BCMA; Ab 0.020 ng/mL; competitor APRIL 500.00 ng/mL
[6] = molecular target: recombinant BCMA (R&D Systems, catalog no. 193-BC) (human) (UniProt Q02223); assay: competitive ELISA, plate-bound BCMA; Ab 20.000 ng/mL; competitor APRIL 62.50 ng/mL
[7] = molecular target: BCMA on BCMA-expressing cells (H929 / NCI-H929, MM1.S, U266, Daudi) (human) (UniProt Q02223); assay: flow cytometry on MM1.S cells; antibody 25.000 ng/ml
[8] = molecular target: recombinant BCMA (R&D Systems, catalog no. 193-BC) (human) (UniProt Q02223); assay: competitive ELISA, plate-bound BCMA; Ab 200.000 ng/mL; competitor APRIL 15.63 ng/mL
[9] = molecular target: recombinant BCMA (R&D Systems, catalog no. 193-BC) (human) (UniProt Q02223); assay: competitive ELISA, plate-bound BCMA; Ab 0.002 ng/mL; competitor APRIL 62.50 ng/mL
[10] = molecular target: BCMA on BCMA-expressing cells (H929 / NCI-H929, MM1.S, U266, Daudi) (human) (UniProt Q02223); assay: flow cytometry on H929 cells; antibody 0.098 ng/ml
[11] = molecular target: BCMA on BCMA-expressing cells (H929 / NCI-H929, MM1.S, U266, Daudi) (human) (UniProt Q02223); assay: flow cytometry on H929 cells; antibody 6.250 ng/ml
[12] = molecular target: recombinant BCMA (R&D Systems, catalog no. 193-BC) (human) (UniProt Q02223); assay: competitive ELISA, plate-bound BCMA; Ab 0.200 ng/mL; competitor APRIL 7.81 ng/mL
[13] = molecular target: recombinant BCMA (R&D Systems, catalog no. 193-BC) (human) (UniProt Q02223); assay: competitive ELISA, plate-bound BCMA; Ab 2.000 ng/mL; competitor APRIL 500.00 ng/mL
[14] = molecular target: recombinant BCMA (R&D Systems, catalog no. 193-BC) (human) (UniProt Q02223); assay: competitive ELISA, plate-bound BCMA; Ab 2.000 ng/mL; competitor APRIL 62.50 ng/mL
[15] = molecular target: BCMA on BCMA-expressing cells (H929 / NCI-H929, MM1.S, U266, Daudi) (human) (UniProt Q02223); assay: flow cytometry on MM1.S cells; antibody 1.560 ng/ml
[16] = molecular target: recombinant BCMA (R&D Systems, catalog no. 193-BC) (human) (UniProt Q02223); assay: competitive ELISA, plate-bound BCMA; Ab 200.000 ng/mL; competitor APRIL 125.00 ng/mL
[17] = molecular target: BCMA on BCMA-expressing cells (H929 / NCI-H929, MM1.S, U266, Daudi) (human) (UniProt Q02223); assay: flow cytometry on H929 cells; antibody 25.000 ng/ml
[18] = molecular target: recombinant BCMA (R&D Systems, catalog no. 193-BC) (human) (UniProt Q02223); assay: competitive ELISA, plate-bound BCMA; Ab 20.000 ng/mL; competitor APRIL 0.00 ng/mL
human BCMA protein = molecular target: T1, human BCMA protein; assay: ELISA protein and cell-binding assays
[19] = molecular target: BCMA on BCMA-expressing cells (H929 / NCI-H929, MM1.S, U266, Daudi) (human) (UniProt Q02223); assay: flow cytometry on MM1.S cells; antibody 0.391 ng/ml
[20] = molecular target: BCMA on BCMA-expressing cells (H929 / NCI-H929, MM1.S, U266, Daudi) (human) (UniProt Q02223); assay: flow cytometry on H929 cells; antibody 50.000 ng/ml
[21] = molecular target: BCMA on BCMA-expressing cells (H929 / NCI-H929, MM1.S, U266, Daudi) (human) (UniProt Q02223); assay: flow cytometry on MM1.S cells; antibody 12.500 ng/ml
[22] = molecular target: BCMA on BCMA-expressing cells (H929 / NCI-H929, MM1.S, U266, Daudi) (human) (UniProt Q02223); assay: flow cytometry on H929 cells; antibody 12.500 ng/ml

Sequence of BCMA on BCMA-expressing cells (H929 / NCI-H929, MM1.S, U266, Daudi) (human) (Q02223 whole entry): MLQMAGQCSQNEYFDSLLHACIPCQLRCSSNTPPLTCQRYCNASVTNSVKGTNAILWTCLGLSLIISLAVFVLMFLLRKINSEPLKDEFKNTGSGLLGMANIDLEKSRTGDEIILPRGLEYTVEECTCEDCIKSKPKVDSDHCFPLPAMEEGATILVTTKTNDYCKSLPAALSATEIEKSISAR

Binder | A450-A570 [1] | A450-A570 [2] | A450-A570 [3] | A450-A570 [4] | A450-A570 [5] | A450-A570 [6] | MFI [7] | A450-A570 [8] | A450-A570 [9] | MFI [10] | MFI [11] | A450-A570 [12] | A450-A570 [13] | A450-A570 [14] | MFI [15] | A450-A570 [16] | MFI [17] | A450-A570 [18] | MFI [19] | further results
anti-BCMA heavy chain-only antibody (UniAb) with the VH of SEQ ID NO: 12 (antibody, V domains shown, Heavy chain-only antibody from UniRat; also called Clone ID No: 316302) VH: QVQLVESGGGLVQPGGSLRLSCVASGFTFSSNAMSWVRQAPGKGLEWVSAISGSGDYTHYSDSVKGRFTISRDNSKNTLYLQMNSLRAEDTAVYYCAKEVPGGPLVDFDSRGQGTLVTVSS | 0.495 | 0.0867 | 0.064 | 0.0629 | 0.0835 | 0.359 | 2130 | 2.4 | 0.067 | 5060 | 5240 | 0.0643 | 0.0711 | 0.0834 | 2110 | 1.37 | 5480 | 0.466 | 2070 | binding result (human BCMA protein): binds
AntiX**BCMA_F7E_F7E (bispecific antibody, part only; not given: other chains of three-chain format, not shown: another chain or arm of the molecule) tandem VH: QVQLVESGGGLVQPGGSLRLSCVASGFTFSSNAMSWVRQAPGKGLEWVSAISGSGDYTHYSDSVKGRFTISRDNSKNTLYLQMNSLRAEDTAVYYCAKEVPGGPLVDFDSRGQGTLVTVSSGGGGSGGGGSQVQLVESGGGLVQPGGSLRLSCVASGFTFSSNAMSWVRQAPGKGLEWVSAISGSGDYTHYSDSVKGRFTISRDNSKNTLYLQMNSLRAEDTAVYYCAKEVPGGPLVDFDSRGQGTLVTVSS | 0.789 | 0.107 | 0.0557 | 0.0577 | 0.0631 | 0.537 | 2340 | 2.37 | 0.0569 | 5070 | 5220 | 0.0577 | 0.0732 | 0.098 | 2030 | 2.3 | 6610 | 0.648 | 2030 | MFI [20]: 10900; MFI [21]: 2180; MFI [22]: 5680
